Measurements from the Human Domainome abundance scans (Beltran et al. 2025).

B1: Far upstream element-binding protein 1, residues 98 to 169; numbered along this chain, Q96AE4 (parent)
chain: RSVMTEEYKVPDGMVGFIIGRGGEQISRIQQESGCKIQIAPDSGGLPERSCMLTGTPESVQSAKRLLDQIVE

Variants of: B1
Assay: abundance fitness (aPCA) (normalised: wild type 0, dead -1); higher = more abundant; growth selection in yeast, the domain comes from the species named
Conditions: Homo sapiens

Abundance fitness, by site and new letter:
M52: E -0.053, C -0.004, P -0.625, A -0.056, L 0, I -0.018, Y -0.012, Q -0.032, V 0, N -0.072, D -0.139, H -0.025, K -0.045, T -0.033, R -0.017, S 0.001, W -0.011, G -0.137
T56: L -0.062, F -0.087, D -0.067, C -0.026, K -0.027, R -0.058, E -0.036, I -0.079, N -0.03, Q -0.042, A -0.046, G -0.091, Y -0.066, W -0.154, S -0.006, V -0.04
P57: D -0.097, V -0.086, G -0.025, Y -0.049, L -0.048, H -0.12, F 0.057, Q 0.033, N 0.001, S -0.027, W -0.104, A -0.017, I -0.088, K -0.044, R -0.021, C -0.111, E -0.008
L66: W -0.123, D -0.127, F -0.087, E -0.017, H -0.05, R -0.053, A -0.076, I -0.045, S -0.029, V -0.11, M -0.006, P -0.684, Y -0.079, C 0, N -0.108
E58: Q 0.001, S -0.041, P -0.065, A -0.051, H -0.052, G -0.05, V -0.075, W -0.125, L -0.072, C -0.17, Y -0.05, K -0.035, I -0.069, D 0.03, T -0.038, R -0.08, N -0.107
V60: W -0.999, F -0.558, S -0.57, L -0.009, N -0.109, K -0.223, T -0.13, P -0.871, H -0.525, I 0.025, A -0.307, Y -0.781, E -0.855, D -0.768, R -0.006, Q -0.174
T54: W -0.185, L -0.087, E -0.028, M 0, A -0.081, F -0.105, P -1.23, Y -0.046, G -0.282, N -0.069, C -0.085, I -0.054, Q -0.067, H -0.056, S -0.027, V -0.05, K 0.01, D -0.191
A63: N -0.91, I -0.328, W -1.31, K -1.04, D -0.633, L -0.41, S -0.261, E -0.815, T -0.303, V -0.246, Y -1.05, P -0.805, C 0.024, F -0.941, H -1.09, G -0.069
S59: M -0.089, Q -0.017, V -0.116, R -0.064, P -0.555, Y -0.376, F -0.428, C -0.071, H -0.063, L -0.401, D -0.053, W -0.754, T -0.058, E 0.012, I -0.252, K -0.046, G -0.046
L53: P -1.03, Q -1.1, V -0.132, Y -1.67, S -0.899, M -0.095, F -0.349, D -1, N -1.05, T -0.923, H -0.99, G -1.1, R -1.05, W -1.03, A -0.719, K -0.835, I 0.048
L67: T -0.534, G -0.583, K -0.653, F -0.121, Q -0.575, N -0.501, V -0.145, C -0.161, D -0.412, Y -0.815, H -0.592, R -0.777, I 0.008, S -0.648, E -0.54, M -0.107, P -0.484, W -0.94
I70: F 0.024, S -0.046, W -0.02, H -0.062, Y -0.003, E 0.001, G -0.11, V 0.001, A 0.062, Q -0.019, K -0.03, C 0.004, N -0.142, P -0.259, R -0.013
G55: N -1.1, F -1.41, C -1.24, T -1.32, P -1.13, S -0.44, K -1.05, V -1.31, A -0.534, H -0.721, L -1.51, D -0.936, E -1.12, I -1.12
K64: P -0.781, H -0.136, F -0.254, V -0.09, T -0.065, R -0.015, A -0.078, N -0.274, S -0.126, C -0.137, Q -0.104, E -0.15, L -0.231, I -0.097, D -0.634, G -0.179, W -0.252
C51: F 0.049, R -0.984, D -0.956, T -0.093, G -0.417, A -0.06, Y -0.116, S -0.284, W -0.108, Q -0.818, L -0.019, K -1.12, M 0.017, E -1, H -0.718, V 0.006, P -0.597
Q69: K -0.004, R -0.009, T -0.029, F -0.097, C -0.079, V -0.014, P -0.097, N -0.02, G -0.002, H -0.041, E 0.023, I -0.054, S -0.018, A -0.006, W -0.274, L -0.065, Y -0.162
D68: Q -0.058, G 0.014, V -0.078, H -0.045, F -0.052, R -0.019, W -0.042, M -0.011, P -0.544, A 0.004, L -0.064, N -0.025, T -0.034, E -0.023, S -0.012, K -0.001, I -0.093, C -0.065
S62: A -0.03, V 0.012, C 0.025, R -0.017, Y -0.066, N -0.005, I -0.082, H -0.01, K 0.005, P -0.727, W -0.059, E -0.004, T -0.005, G -0.01, Q -0.019, F -0.071
Q61: Y -0.049, E 0.052, G 0.001, D 0.003, A -0.003, T -0.002, L -0.003, N -0.021, V -0.035, I -0.029, P -0.463, C -0.003, W -0.058, H -0.051, R -0.002, M -0.007, F -0.031, S -0.009
R65: V -0.002, G -0.027, T -0.019, D -0.043, E -0.015, I -0.051, W -0.082, S -0.034, Y -0.053, N -0.008, P -0.464, H -0.025, Q -0.02, L -0.024, K -0.006, F 0.017, C -0.029
